Source: paper PMC13286378, “The SPN-4 Rbfox RNA-binding protein selects maternal mRNAs for CCR4-NOT-dependent clearance in early Caenorhabditis elegans embryos”

T1: SPN-4 RRM (3xFLAG::SPN-4 RRM::6xHis) (Caenorhabditis elegans, UniProt G5EF02 1-200)
T1 sequence: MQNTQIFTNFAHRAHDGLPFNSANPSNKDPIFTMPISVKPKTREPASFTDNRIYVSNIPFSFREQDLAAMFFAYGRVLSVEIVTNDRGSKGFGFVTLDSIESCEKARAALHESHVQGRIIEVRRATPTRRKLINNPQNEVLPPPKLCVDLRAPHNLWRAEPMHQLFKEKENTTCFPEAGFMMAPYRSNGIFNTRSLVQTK


Target: T1, SPN-4 RRM (3xFLAG::SPN-4 RRM::6xHis)
Experiment: EMSA; did not bind specifically; 10 mM Tris-HCl pH 7.5, 150 mM NaCl, 0.001% NP-40, 10% glycerol, 0.01 mg/ml tRNA, 0.025% Tween-20; 32 nM RNA, 50 nM-2.9 uM protein; 15 min, room temperature; 8%
Conditions: protein: recombinant; tags: N-terminal 3xFLAG (MBP removed by TEV), C-terminal 6xHis; label: 5' Cy5

Binder	binding result
AUUAGUAUUAUUAUUAUUACAAACUCUUACCUCAUCUCUC (ssRNA) [chs-1(40-79) Rbfox mutant control]	no binding

Target: T1, SPN-4 RRM (3xFLAG::SPN-4 RRM::6xHis)
Experiment: EMSA; 10 mM Tris-HCl pH 7.5, 150 mM NaCl, 0.001% NP-40, 10% glycerol, 0.01 mg/ml tRNA, 0.025% Tween-20; 32 nM RNA, 50 nM-2.9 uM protein; 15 min, room temperature; 8%
Conditions: protein: recombinant; tags: N-terminal 3xFLAG (MBP removed by TEV), C-terminal 6xHis; label: 5' Cy5

Binder	Kd [nM]
lin-41(995-1054) (ssRNA) RNA: GUGCCCUAGCGCUAAAUAUUGUUUUAUUUUAAUGCAUGCUUCCUGCACGCCCCUCCCCCU	308 ± 17.9
UUAAUGCAUGCUUCCUACAAACCCC (ssRNA) [lin-41(1023-1047) motif 1]	230 ± 8.1
AUUAGUAUUAUUAUUAUUGCAUGCUCUUACCUCAUCUCUC (ssRNA) [chs-1(40-79)]	174 ± 13.5
UUAAUGCAUGCUUCCUGCACGCCCC (ssRNA) [lin-41(1023-1047)]	285 ± 29.4
UUAAUACAAACUUCCUGCACGCCCC (ssRNA) [lin-41(1023-1047) motif 2]	1640 ± 146
